Experimental data from the supplement of paper PMC7877785.
± gives the uncertainty stated by the source.

Assay: self-splicing fitness, log relative to wild type (ln ratio); higher = more splicing; Tetrahymena group I intron in knt gene, E. coli kanamycin selection, DiMSum; sequences stand for … in CUCUCU…GGAGGGAAAAGUUAUCAGGCAUGCACCUGGUAGCUAGUCUUUAAACCAAUAGAUUGCAUCGGUUUAAAAGGCAAGACCGUCAAAUUGCGGGAAAGGGGUCAACAGCCGUUCAGUACCAAGUCUCAGGGGAAACUUUGAGAUGGCCUUGCAAAGGGUAUGGUAAUAAGCUGACGGACAUGGUCCUAACCACGCAGCCAAGUCCUAAGUCAACAGAUCUUCUGUUGAUAUGGAUGCAGUUCACAGACUAAAUGUCGGUCGGGGAAGAUGUAUUCUUCUCAUAAGAUAUAGUCGGACCUCUCCUUAAUGGGAGCUAGCGGAUGAAGUGAUGCAACACUGGAGCCGCUGGGAACUAAUUUGUAUGCGAAAGUAUAUUGAUUAGUUUUGGAGUACUCGUGGUCG
Outline: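 Six replicate transformations of E. coli BL21(DE3) with a pET-22b(+) library were grown overnight at 37°C or 30°C. The library randomised all eight P1ex-region intron nucleotides, the intron lying in the knt kanamycin-resistance gene, and plates were LB agar with or without 25 μg/mL kanamycin plus 100 μg/mL carbenicillin, 50 μM IPTG and 0.2% rhamnose. Pooled colonies were amplicon-sequenced on an Illumina HiSeq 2500, and fitness is the DiMSum error-weighted combination of wild-type-normalised replicate fold changes, kanamycin versus none.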

| Sequence | self-splicing fitness (ln) (30 °C) | self-splicing fitness (ln) (37 °C) |
| --- | --- | --- |
| AAUAAGCAAUAUUACGGCUG | -0.2 ± 0.085 | 0.42 ± 0.1 |
| AAUAAGCAAUAUUACGGGAC | -3.76 ± 0.3 | -2.17 ± 0.21 |
| AAUAAGCAAUAUUACGGGUG | -1.59 ± 0.12 | -1.04 ± 0.11 |
| AAUAAGCAAUAUUACGUAAC | – | -1.85 ± 0.25 |
| AAUAAGCAAUAUUACGUAUC | -1.6 ± 0.087 | -1.36 ± 0.11 |
| AAUAAGCAAUAUUACGUCCU | -0.0473 ± 0.076 | 0.0333 ± 0.088 |
| AAUAAGCAAUAUUACGUCGU | -0.729 ± 0.079 | -0.613 ± 0.093 |
| AAUAAGCAAUAUUACGUCUC | -1.68 ± 0.11 | -0.799 ± 0.13 |
| AAUAAGCAAUAUUACGUUAU | -2.45 ± 0.13 | -1.58 ± 0.16 |
| AAUCAGCAAUAUUACGAAUU | -0.152 ± 0.1 | 0.193 ± 0.13 |
| AAUCAGCAAUAUUACGACGG | -1.73 ± 0.097 | -0.991 ± 0.13 |
| AAUCAGCAAUAUUACGACGU | 0.0618 ± 0.056 | 0.666 ± 0.07 |
| AAUCAGCAAUAUUACGACUG | -0.833 ± 0.097 | 0.27 ± 0.11 |
| AAUCAGCAAUAUUACGACUU | 0.234 ± 0.068 | 0.142 ± 0.083 |
| AAUCAGCAAUAUUACGAGGC | -3.28 ± 0.25 | -2.47 ± 0.23 |
| AAUCAGCAAUAUUACGAUAA | -0.0103 ± 0.084 | -0.0641 ± 0.1 |
| AAUCAGCAAUAUUACGAUUG | -1.54 ± 0.064 | -0.631 ± 0.085 |
| AAUCAGCAAUAUUACGCACC | -0.409 ± 0.17 | 0.0564 ± 0.22 |
| AAUCAGCAAUAUUACGCAGG | -1.51 ± 0.11 | 0.11 ± 0.097 |
| AAUCAGCAAUAUUACGCAGU | -0.402 ± 0.066 | -0.257 ± 0.078 |
| AAUCAGCAAUAUUACGCAUU | -1.1 ± 0.072 | -0.498 ± 0.086 |
| AAUCAGCAAUAUUACGCCCU | 0.314 ± 0.099 | 0.0253 ± 0.12 |
| AAUCAGCAAUAUUACGGAAG | -1.75 ± 0.11 | -0.948 ± 0.12 |
| AAUCAGCAAUAUUACGGAUC | -0.358 ± 0.073 | 0.17 ± 0.1 |

| Sequence | self-splicing fitness (ln) (30 °C) | self-splicing fitness (ln) (37 °C) |
| --- | --- | --- |
| AAUCAGCAAUAUUACGGCCC | -0.563 ± 0.18 | 0.491 ± 0.2 |
| AAUCAGCAAUAUUACGGCCU | 0.091 ± 0.13 | 0.245 ± 0.15 |
| AAUCAGCAAUAUUACGGGAC | -3.57 ± 0.18 | -1.4 ± 0.096 |
| AAUCAGCAAUAUUACGGGCC | -3.19 ± 0.44 | -2.58 ± 0.28 |
| AAUCAGCAAUAUUACGGGCU | -2.04 ± 0.081 | -1.22 ± 0.094 |
| AAUCAGCAAUAUUACGGGGC | -3.92 ± 0.33 | -2.58 ± 0.29 |
| AAUCAGCAAUAUUACGGUAC | -0.714 ± 0.082 | -0.852 ± 0.1 |
| AAUCAGCAAUAUUACGUACC | -0.557 ± 0.16 | -0.29 ± 0.18 |
| AAUCAGCAAUAUUACGUGAG | -0.184 ± 0.047 | 0.612 ± 0.077 |
| AAUCAGCAAUAUUACGUGGU | -1.65 ± 0.088 | -0.981 ± 0.11 |
| AAUCAGCAAUAUUACGUUGG | -2.06 ± 0.1 | -1 ± 0.1 |
| AAUGAGCAAUAUUACGAACA | -1.5 ± 0.45 | -1.2 ± 0.48 |
| AAUGAGCAAUAUUACGACAA | -3.01 ± 0.27 | -1.93 ± 0.25 |
| AAUGAGCAAUAUUACGAUUA | -2.57 ± 0.11 | -1.37 ± 0.1 |
| AAUGAGCAAUAUUACGAUUC | -3.1 ± 0.26 | -2.43 ± 0.26 |
| AAUGAGCAAUAUUACGCAGA | -2.8 ± 0.27 | -1.56 ± 0.25 |
| AAUGAGCAAUAUUACGCCUG | -3.5 ± 0.2 | -2.85 ± 0.26 |
| AAUGAGCAAUAUUACGCUGC | – | -1.24 ± 0.24 |
| AAUGAGCAAUAUUACGGCAA | -2.55 ± 0.34 | -1.85 ± 0.35 |
| AAUGAGCAAUAUUACGGGAU | -4.32 ± 0.28 | -3.09 ± 0.29 |
| AAUGAGCAAUAUUACGGGCC | – | -1.76 ± 0.39 |
| AAUGAGCAAUAUUACGGUAU | – | -1.81 ± 0.19 |
| AAUGAGCAAUAUUACGGUGA | -3.31 ± 0.27 | -2.26 ± 0.42 |
| AAUGAGCAAUAUUACGGUUG | -2.99 ± 0.13 | -2.81 ± 0.19 |

| Sequence | self-splicing fitness (ln) (30 °C) | self-splicing fitness (ln) (37 °C) |
| --- | --- | --- |
| AAUGAGCAAUAUUACGUAAG | -2.38 ± 0.22 | -2.2 ± 0.23 |
| AAUGAGCAAUAUUACGUACU | -0.657 ± 0.12 | -0.978 ± 0.16 |
| AAUGAGCAAUAUUACGUCUA | -2.27 ± 0.24 | -1.59 ± 0.18 |
| AAUGAGCAAUAUUACGUCUU | 0.00922 ± 0.083 | -0.0903 ± 0.096 |
| AAUGAGCAAUAUUACGUGUU | -4.51 ± 0.23 | -2.85 ± 0.22 |
| AAUGAGCAAUAUUACGUUAA | -2.76 ± 0.18 | -1.72 ± 0.17 |
| AAUGAGCAAUAUUACGUUGU | -3.73 ± 0.14 | -2.89 ± 0.16 |
| AAUUAGCAAUAUUACGAAAA | -2.54 ± 0.24 | -0.586 ± 0.19 |
| AAUUAGCAAUAUUACGAAGC | -1.94 ± 0.27 | – |
| AAUUAGCAAUAUUACGAAGG | -2.79 ± 0.23 | -1.88 ± 0.35 |
| AAUUAGCAAUAUUACGAUGU | -0.358 ± 0.078 | 0.171 ± 0.11 |
| AAUUAGCAAUAUUACGAUUU | -0.494 ± 0.11 | -0.268 ± 0.13 |
| AAUUAGCAAUAUUACGCAGC | -3.15 ± 0.48 | -2.21 ± 0.27 |
| AAUUAGCAAUAUUACGCGCA | -0.118 ± 0.11 | 0.114 ± 0.15 |
| AAUUAGCAAUAUUACGCGCG | -1.62 ± 0.17 | -0.951 ± 0.18 |
| AAUUAGCAAUAUUACGCUUU | -3.27 ± 0.23 | -1.01 ± 0.14 |
| AAUUAGCAAUAUUACGGCAA | -0.926 ± 0.14 | -0.497 ± 0.18 |
| AAUUAGCAAUAUUACGGCAU | 0.0829 ± 0.11 | 0.351 ± 0.11 |
| AAUUAGCAAUAUUACGGCUA | -0.905 ± 0.17 | -0.685 ± 0.22 |
| AAUUAGCAAUAUUACGGGCG | -0.93 ± 0.12 | -1.36 ± 0.13 |
| AAUUAGCAAUAUUACGGGGU | -2.06 ± 0.2 | -2.02 ± 0.32 |
| AAUUAGCAAUAUUACGGGUA | -1.52 ± 0.11 | -0.428 ± 0.098 |
| AAUUAGCAAUAUUACGGUUU | -1.16 ± 0.063 | -0.716 ± 0.089 |
| AAUUAGCAAUAUUACGUACG | -1.75 ± 0.11 | -0.862 ± 0.12 |

| Sequence | self-splicing fitness (ln) (30 °C) | self-splicing fitness (ln) (37 °C) |
| --- | --- | --- |
| AAUUAGCAAUAUUACGUAUC | -2.2 ± 0.15 | -0.0316 ± 0.13 |
| AAUUAGCAAUAUUACGUCCA | -0.685 ± 0.087 | -1.2 ± 0.096 |
| AAUUAGCAAUAUUACGUCCG | -1.12 ± 0.18 | -0.444 ± 0.26 |
| AAUUAGCAAUAUUACGUCGU | -0.641 ± 0.1 | -0.862 ± 0.12 |
| AAUUAGCAAUAUUACGUGGG | -3.58 ± 0.24 | -3.64 ± 0.3 |
| ACAAAGCAAUAUUACGAACC | -0.815 ± 0.21 | -1.44 ± 0.19 |
| ACAAAGCAAUAUUACGAAUU | -3.38 ± 0.2 | -2.12 ± 0.18 |
| ACAAAGCAAUAUUACGACAA | -0.955 ± 0.15 | -0.443 ± 0.13 |
| ACAAAGCAAUAUUACGACAC | -1.54 ± 0.084 | -0.962 ± 0.1 |
| ACAAAGCAAUAUUACGACGC | -0.112 ± 0.044 | 0.422 ± 0.066 |
| ACAAAGCAAUAUUACGACUA | -0.772 ± 0.082 | -0.796 ± 0.084 |
| ACAAAGCAAUAUUACGACUU | -0.336 ± 0.06 | 0.0905 ± 0.079 |
| ACAAAGCAAUAUUACGAGGG | -3.39 ± 0.11 | -2.14 ± 0.11 |
| ACAAAGCAAUAUUACGAUCU | -0.717 ± 0.067 | -0.0747 ± 0.083 |
| ACAAAGCAAUAUUACGAUGC | -1.61 ± 0.11 | -1.9 ± 0.15 |
| ACAAAGCAAUAUUACGCAAA | -2.72 ± 0.14 | -1.6 ± 0.12 |
| ACAAAGCAAUAUUACGCAGC | -2.63 ± 0.17 | -0.879 ± 0.16 |
| ACAAAGCAAUAUUACGCAUA | -2.12 ± 0.12 | -0.921 ± 0.11 |
| ACAAAGCAAUAUUACGCCCA | -1.24 ± 0.11 | -0.225 ± 0.13 |
| ACAAAGCAAUAUUACGCCCU | -0.361 ± 0.098 | 0.683 ± 0.14 |
| ACAAAGCAAUAUUACGCGUA | -1.4 ± 0.099 | -0.512 ± 0.097 |
| ACAAAGCAAUAUUACGCUCU | -1.09 ± 0.063 | -0.102 ± 0.095 |
| ACAAAGCAAUAUUACGGCUG | -0.524 ± 0.069 | -0.277 ± 0.088 |
| ACAAAGCAAUAUUACGGCUU | -0.982 ± 0.084 | -0.814 ± 0.12 |
